# B1: human plasmin (enzyme)
# chain 1: KVYLSECKTGNGKNYRGTMSKTKNGITCQKWSSTSPHRPRFSPATHPSEGLEENYCRNPDNDPQGPWCYTTDPEKRYDYCDILECEEECMHCSGENYDGKISKTMSGLECQAWDSQSPHAHGYIPSKFPNKNLKKNYCRNPDRELRPWCFTTDPNKRWELCDIPRCTTPPPSSGPTYQCLKGTGENYRGNVAVTVSGHTCQHWSAQTPHTHNRTPENFPCKNLDENYCRNPDGKRAPWCHTTNSQVRWEYCKIPSCDSSPVSTEQLAPTAPPELTPVVQDCYHGDGQSYRGTSSTTTTGKKCQSWSSMTPHRHQKTPENYPNAGLTMNYCRNPDADKGPWCFTTDPSVRWEYCNLKKCSGTEASVVAPPPVVLLPDVETPSEEDCMFGNGKGYRGKRATTVTGTPCQDWAAQEPHRHSIFTPETNPRAGLEKNYCRNPDGDVGGPWCYTTNPRKLYDYCDVPQCAAPSFDCGKPQVEPKKCPGR
# chain 2: VVGGCVAHPHSWPWQVSLRTRFGMHFCGGTLISPEWVLTAAHCLEKSPRPSSYKVILGAHQEVNLEPHVQEIEVSRLFLEPTRKDIALLKLSSPAVITDKVIPACLPSPNYVVADRTECFITGWGETQGTFGAGLLKEAQLPVIENKVCNRYEFLNGRVQSTELCAGHLAGGTDSCQGDSGGPLVCFEKDKYILQGVTSWGLGCARPNKPGVYVRVSRFVTWIEGVMRNN
# modifications: active two-chain plasmin (Lys-plasmin limits from the UniProt chain features; the paper prints none), heavy and light chains joined by interchain disulfides; natural glycosylation
# Target: T1, recombinant AaTI (Aedes aegypti Kazal-type serine protease inhibitor) (Aedes aegypti, UniProt Q177W0 23-91)
# T1 construct: recombinant protein of 9.85 kDa inclusive of His-tag; also called rAaTI; wild-type rAaTI; source: bacterial system, purified
# T1 sequence (looked up): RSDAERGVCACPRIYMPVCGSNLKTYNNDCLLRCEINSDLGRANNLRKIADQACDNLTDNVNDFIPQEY
# Assay: BLI; rAaTI-preloaded biosensors immersed into plasmin solutions of different concentrations; association and dissociation curves fitted globally to 1:1 kinetics
# Conditions: both partners purified
binder,measurement,value
B1,Kd,62.8 nM

# From article PMC6854080, “Increased Mosquito Midgut Infection by Dengue Virus Recruitment of Plasmin Is Blocked by an Endogenous Kazal-type Inhibitor” (iScience, 2019)
